Results taken from the RNAGym collection of RNA variant scans (doi:10.1073/pnas.2313332121).

B1: TPR t1 (parent)
chain: GACCAAUCUGCCCUCAGAGCUCGAGAACAUCUUCGGAUGCAGAGGAGGCAGGCUUCGGUGGCGCGAUAGCGCCAACGUCCUCAACCUCCAAUGCAUCCCACCACAUGAUGAUGCCUGAAGAGCCUUGGUUUUUUG

Variants of: B1
Assay: polymerase ribozyme fitness, log enrichment relative to wild type (log ratio); higher = more active; in vitro selection for triplet polymerase activity
How it was run: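 Fitness is a logarithmic measure of how a genotype enriched relative to the wild type, with replicate averages weighted by inverse variance. The logarithm uses base 2, and enrichment came from Illumina sequencing of input and output libraries. Those libraries were PCR-built, transcribed mutants of each subunit of a heterodimeric triplet polymerase ribozyme, passed through one triplicate in vitro selection round that included frozen incubation at −7 °C, gel excision of extended constructs and streptavidin-bead capture. Genotypes were kept only if they had ≥10 input reads and ≥1 read per output.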

Variant | polymerase ribozyme fitness (log ratio)
G19C C22G C72U | -4.44
C20A A37U U54A | -3.54
C20A C22G G71A A121G | -3.88
C20A A46U C72U U129A | -6.73
C20A A50U G120A | -3.84
C20A C70A | -4.86
C20A C70G | -5.59
C20A C53A U78G C82G U112A | -0.686
G19C G45A C72A G120C | -1.67
C20A C49U | -3.79
C20A A43U G113C | -5.17
G19U G44U | -4.75
C20A C28A G36A C72G A90C G110U | -6.43
G19U A75G | -3.56
C20A G23C U33C C62U U106A A108C G117C | -8.64
G19U A46C G52C U54C U96C C114A | 0.227
G19C G44C C70A G93C C124G | -5.3
C20A A27C | -4.9
G19U G63C U92A | -5.54
C20A C86A U112C G117A | -5.64
C20A G35U A100U C114A C115U U130C | -6.44
G19U A43G G47U C76G G113A A119C U131A | -4.34
G19U C53G U54A C124A G128A | -3.23
G19U U129G | -4.04

Variant | polymerase ribozyme fitness (log ratio)
G19C C20A G71A A95U C102U U116C C123U U126G | -6.03
G19U G39U G48A G63C A111G | -4.79
G19U U21A C49A C82A G113C | -4.41
C20A C82U U87G C102A | -4.69
G19U C70A | -4.07
G19U C70G | -5.52
G19U C70U | -3.23
C20A C40A C115A | -4.58
G19U G135U | -3.57
G19U A37C | -3.64
C20A C86A U112A U125G U126G | -1.97
G19U C94A A105C C114A A118U | -0.986
C20A C124G | -0.976
C20A A26G G110U | -4.8
C20A C28A G45U A84U C104A G107U C124U | -5.96
G19U C53G C73A U112A | -1.03
G19U C76U | -4.25
C20A C40A C76G C124A | -2.76
G19U A24G U38C G61U G113A | -3.85
G19C C94A U130C | -2.66
C20A A37C G47C A83U U133G | -4.54
G19U C53G A91G | -3.77
G19U C89U C115A | -6.23
C20A C53A U59A G69C | -4

Variant | polymerase ribozyme fitness (log ratio)
G19U C115G U130G | -5.08
C20A C79U C97U C124A G127C | -2.63
G19U G60A G110U | -6.37
C20A C56A C98U | -3.64
G19C A66C C114U U116C | -3.53
G19U G71A | -3.31
G19U G110U | -5.11
C20A C40U | -3.35
G19C U78C A90G G113U C114U | -0.588
G19C C72U A91U G113A | -0.96
G19U G71U A84U | -4.08
C20A C64G U92C A121C | -6.25
G19U G71A U78A | -4.64
G19C C20U C64U | -1.8
G19U A43U | -3.24
G19U A43G | -2.34
G19C G110C C114U | -5.66
C20A C62G C115U G122U | -6.79
G19U C62U | -3.18
C20A A50G A74U | -3.16
C20A C70U C76G | -3.5
C20A A26G U33A | -5.24
G19U C62G G71U | -3.71
G19C G42U G45C C72A C79A C82G | -3.62

Variant | polymerase ribozyme fitness (log ratio)
C20A C97A | -5.7
G19U C34A G69C C114U | -6.59
G19U U55G C114A U131A | 2.05
C20A C53A C79U G110U | -4.5
G19C G120A | -1.56
G19U C56G U106C | -5.42
G19C C62G C115U | -4.26
G19U U55C G61C | -4.04
C20A A41U G71A | -4.76
C20A C73U C97U A121C | -1.59
G19U C89G | -4.36
G19U U130G | -3.14
C20A C34G C85U A90C G120C | -5.64
C20A C53A G57A C73U C79U C102A A121C | -4.43
C20A C86G C89U A119U | -6.11
C20A A46C A74G G93C A118G | -5.42
C20A A41C G71A C82A | -5.71
C20A A50U | -4.4
G19U G48C C123U | -5.25
G19U G51A G60C G120A | -6.42
G19U G69U G110C | -3.55
C20A C56U C80U | -4.41
G19U G47U C49G C70U C86U U87C U109A C115U | -6.81
C20A C72G A95U G113C | -6.92

Variant | polymerase ribozyme fitness (log ratio)
G19C U81C C124G | -0.981
G19C G42A G120U | -2.23
G19C C79A C89A | -4.61
C20A A26G G63U C99A C104A | -6.09
C20A C56A C76A C82U | -4.8
G19C C22U A46C G61U C114U | -4.53
G19U C70U C94A C114U | -2.13
C20A C115G | -4.5
G19C C86A | -2.92
G19C C62U U112G | -6.55
G19U C56U | -2.37
C20A C22U G42U G113U U132A | -3.71
C20A C72G U81A U109A A118C G122A | -5.92
G19U A46U G60A | -3.83
C20A G36A | -4.23
C20A A121U | -0.837
C20A C56A C82U | -3.22
G19U A37U U55G | -4.52
G19C G42C G110U G113A | -5.33
G19U A26U C114A | -1.45
C20A C22U U59G C82A A111U | -5.49
G19U G44A C70A C72U | -6.42
C20A A74G | -3.04
G19U C20A C72G G77C A91C C94A U106A | -5.31

Variant | polymerase ribozyme fitness (log ratio)
C20A A37U G61A A121C G122A | -1.31
C20A C49A G63A U81A C104U G120C U133A G135U | -4.91
G19U G71C A121U | -2.34
C20A A46G C49A G60U U81G A91C | -5.46
G19C C89A U125G | -2.33
G19C A37U A46C C72A C76U C82G C124A | -4.65
C20A A68G U78C C123U | -4.98
C20A C28U A46C G113U C115A | -4.17
G19U C72A | -3.06
G19C G44A G61A U125G | -2.72
C20A C34U C72U C76A C82A A121C G135U | -6.49
G19U G42C | -3.93
G19U G42A | -3.15
G19C A37U C62G C124U | -3.51
G19U C88U | -3.2
C20A A111G | -3.92
G19C A43C G44C C64A A105C A111U | -7.06
C20A C104A C123G | -4.45
C20A A27G C40G U55C G71C G113A | -3.84
G19C C115G | -2.22
G19U G61A C62U C124A U131C | -4.46
G19U G63A G77U U109A C114U G117C | -6.78
G19C G60A G93A | -2.11
G19C U92A C114U U133A | -1.16

Variant | polymerase ribozyme fitness (log ratio)
C20A C79U | -2.47
G19U C53G U54A G61A | -2.73
C20A A41U G61A C102A | -6.03
G19U U55G C123A | -4.18
C20A C72G A75U C85A G110U | -5.51
C20A A43U | -3.83
G19C G42U G45C C79A C82G | -4.37
G19U C20U | -2.46
C20A A90U | -3.71
C20A C79A U131A | -3.6
G19U G39C C53U G71U U81A G93U C114A | -4.82
G19U C40U G47U G61A U106A C123U | -6.98
G19C G52A A119U | -3.63
G19C G63U C80A G110C | -6.93
G19C C28U C34A C53G C64A C114U U126C | -6.21
G19U U59G U106G U112A | -2.43
G19U A37C C56U A84C | -3.87
G19U G60A C79U G120C | -2.44
C20A C22U C49A U92A C115U | -7.22
G19U G36C A75G A111C U132A | -5.05
C20A C62U | -2.95
G19C G61A G113U U129A | -4.11
G19U G93U | -4.25
